US20060223158

Experiments:
[1] = test system: Cdk5 purified from insect Sf9 cultures
[2] = test system: p35-His6 purified from insect Sf9 cultures

Chain of CK1α (New England Biolabs) (P48729 2-337): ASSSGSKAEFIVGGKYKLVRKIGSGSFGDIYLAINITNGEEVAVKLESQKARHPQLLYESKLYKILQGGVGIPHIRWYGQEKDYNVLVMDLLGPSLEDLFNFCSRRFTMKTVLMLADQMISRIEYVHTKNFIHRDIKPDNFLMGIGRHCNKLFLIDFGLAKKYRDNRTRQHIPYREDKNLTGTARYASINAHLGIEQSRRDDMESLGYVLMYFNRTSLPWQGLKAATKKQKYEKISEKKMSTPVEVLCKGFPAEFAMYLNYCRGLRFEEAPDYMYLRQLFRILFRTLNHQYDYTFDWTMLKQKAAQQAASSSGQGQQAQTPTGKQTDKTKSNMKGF

Substance: CK1α (New England Biolabs)
- 32P incorporation, in vitro phosphorylation, SDS-PAGE and autoradiography [1]: phosphorylated Cdk5 catalytic subunit to a much lesser extent
- 32P incorporation, in vitro phosphorylation, SDS-PAGE and autoradiography [2]: CKI was able to efficiently phosphorylate p25
- stoichiometry of phosphorylation in vitro [2]: phosphorylation of p25 to approximately 2 mol/mol
